In patent US20200338203A1 (Bicycle, published 2020):
Read-outs that look alike come from different tables or passages of the source. One block for each binder: values may come before it. Numbered stars: 1 amine (or outer) side, 2 acyl side, 3 side chain; on linkers, the order of the positions; unused ones are H or OH. Bridge positions count the residues as written; N and C are the ends. Square brackets hold non-standard residues; d marks the D form. Ends that are not written are not given here. DM1 = thiol-containing maytansine derivative (cytotoxic agent); AlexaFluor488 = AlexaFluor488 fluorescent dye label; disulphide linker of formula (B) = not defined here; 1Nal = N[C@@H](Cc1cccc2ccccc12)C(=O)O; TBMB = c1c(C[*:1])cc(C[*:3])cc1C[*:2]; Gly(cPent) = N[C@H](C(=O)O)C1CCCC1; Tle = CC(C)(C)[C@H](N)C(=O)O; AF488 = AlexaFluor488 label; Aib = CC(C)(N)C(=O)O; βAla = NCCC(=O)O; Sar = CNCC(=O)O

Assays:
Human EphA2 (Ecto) [1] = molecular target: T1, Human EphA2 (Ecto) (Human, UniProt P29317 24-537); experiment: FP competition; competitor Compound 1
T1 construct: extracellular domain
T1 sequence (P29317 24-537): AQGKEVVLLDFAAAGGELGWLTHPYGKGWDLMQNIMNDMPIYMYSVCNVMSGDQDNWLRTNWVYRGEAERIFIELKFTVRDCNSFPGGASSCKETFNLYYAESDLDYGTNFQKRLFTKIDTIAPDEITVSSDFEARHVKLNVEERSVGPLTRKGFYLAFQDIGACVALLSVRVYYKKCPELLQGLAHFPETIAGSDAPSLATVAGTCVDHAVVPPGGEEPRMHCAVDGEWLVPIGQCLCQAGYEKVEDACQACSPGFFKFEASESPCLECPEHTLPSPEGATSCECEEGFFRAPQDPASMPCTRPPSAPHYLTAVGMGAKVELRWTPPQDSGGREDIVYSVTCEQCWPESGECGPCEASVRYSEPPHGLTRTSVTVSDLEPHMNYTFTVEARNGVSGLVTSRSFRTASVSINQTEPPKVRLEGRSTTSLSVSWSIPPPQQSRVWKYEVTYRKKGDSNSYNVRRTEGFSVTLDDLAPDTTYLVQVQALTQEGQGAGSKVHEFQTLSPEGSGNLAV
Method: (§1) Peptides without a fluorescent tag were tested in competition with a peptide with a fluorescent tag and a known Kd (Table 2). Peptides were diluted to an appropriate concentration in assay buffer as described in the direct binding assay with a maximum of 5% DMSO, then serially diluted 1 in 2. Five μL of diluted peptide was added to the plate followed by 10 μL of human or mouse EphA2 (Table 1) at a fixed concentration which was dependent on the fluorescent peptide used (Table 2), then 10 μL fluorescent peptide added. Measurements were conducted as for the direct binding assay, however the gain was determined prior to the first measurement.

dog EphA2 = dog EphA2 (Dog, UniProt A0A286R219 28-206); experiment: FP direct binding, selectivity
Method: (§2) The gain used for analysis was determined for each tracer at the end of the 60 minutes where there was no protein in the well. Data was analysed using Systat Sigmaplot version 12.0. mP values were fit to a user defined quadratic equation to generate a Kd value: f=ymin+(ymax−ymin)/Lig*((x+Lig+Kd)/2-sqrt((((x+Lig+Kd)/2)\hat{ }2)−(Lig*x))). “Lig” was a defined value of the concentration of tracer used.

rat EphA2 = rat EphA2 (Rat, UniProt D3ZBN3 27-205); experiment: FP direct binding, selectivity
Method: as §2

Human EphA2 (Ecto) [2] = molecular target: T1, Human EphA2 (Ecto); experiment: FP competition; competitor Compound 12
Method: as §1

Human EphA2 (Ecto) [3] = molecular target: T1, Human EphA2 (Ecto); experiment: FP competition; competitor Compound 66
Method: as §1

Human EphA2 = molecular target: T2, Human EphA2 (Human, UniProt P29317 24-537); experiment: FP competition; competitor: fluorescent Compound 12
T2 construct: extracellular domain; also called EphA2 (Ecto), Human
T2 sequence (P29317 24-537): as above
Method: as §1

mouse EphA2 = molecular target: T3, mouse EphA2 (Mouse, UniProt Q03145 26-538); experiment: FP direct binding, selectivity
T3 construct: extracellular domain; C-terminal polyHis; also called EphA2 (Ecto), Mouse
T3 sequence (Q03145 26-538): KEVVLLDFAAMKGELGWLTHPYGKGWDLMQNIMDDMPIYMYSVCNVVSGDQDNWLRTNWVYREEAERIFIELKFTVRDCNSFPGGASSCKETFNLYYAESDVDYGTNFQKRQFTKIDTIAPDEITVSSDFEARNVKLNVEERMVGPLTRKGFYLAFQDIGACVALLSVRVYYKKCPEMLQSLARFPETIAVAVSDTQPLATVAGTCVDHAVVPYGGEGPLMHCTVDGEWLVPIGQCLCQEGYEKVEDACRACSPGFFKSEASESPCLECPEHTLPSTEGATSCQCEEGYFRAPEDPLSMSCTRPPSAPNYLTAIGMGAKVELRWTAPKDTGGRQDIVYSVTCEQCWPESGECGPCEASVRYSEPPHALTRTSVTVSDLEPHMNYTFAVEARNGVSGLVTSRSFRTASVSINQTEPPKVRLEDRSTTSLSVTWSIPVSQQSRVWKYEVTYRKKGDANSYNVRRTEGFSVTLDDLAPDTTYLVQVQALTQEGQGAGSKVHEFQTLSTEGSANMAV
Method: as §2

Mouse EphA2 (Ecto) [4] = molecular target: T4, Mouse EphA2 (Ecto) (Mouse, UniProt Q03145 26-538); experiment: FP direct binding
T4 construct: extracellular domain; not shown: Fc fusion or C-terminal polyHis
T4 sequence (Q03145 26-538): as above
Method: as §2

Human EphA2 (Ecto) [5] = molecular target: T1, Human EphA2 (Ecto); experiment: FP direct binding
Method: as §2

Mouse EphA2 (Ecto) [6] = molecular target: T4, Mouse EphA2 (Ecto); experiment: FP competition; competitor Compound 18
Human EphA2 (Ecto) [7] = molecular target: T1, Human EphA2 (Ecto); experiment: FP competition; competitor Compound 18
Mouse EphA2 (Ecto) [8] = molecular target: T4, Mouse EphA2 (Ecto); experiment: FP direct binding; remark: listed apart in the source
Human EphA2 (Ecto) [9] = molecular target: T1, Human EphA2 (Ecto); experiment: FP direct binding; remark: listed apart in the source
[10] = molecular target: Human & mouse EphA3 (Human & mouse) (UniProt P29320); experiment: FP direct binding, selectivity
Chain of Human & mouse EphA3 (Human & mouse) (P29320 21-541): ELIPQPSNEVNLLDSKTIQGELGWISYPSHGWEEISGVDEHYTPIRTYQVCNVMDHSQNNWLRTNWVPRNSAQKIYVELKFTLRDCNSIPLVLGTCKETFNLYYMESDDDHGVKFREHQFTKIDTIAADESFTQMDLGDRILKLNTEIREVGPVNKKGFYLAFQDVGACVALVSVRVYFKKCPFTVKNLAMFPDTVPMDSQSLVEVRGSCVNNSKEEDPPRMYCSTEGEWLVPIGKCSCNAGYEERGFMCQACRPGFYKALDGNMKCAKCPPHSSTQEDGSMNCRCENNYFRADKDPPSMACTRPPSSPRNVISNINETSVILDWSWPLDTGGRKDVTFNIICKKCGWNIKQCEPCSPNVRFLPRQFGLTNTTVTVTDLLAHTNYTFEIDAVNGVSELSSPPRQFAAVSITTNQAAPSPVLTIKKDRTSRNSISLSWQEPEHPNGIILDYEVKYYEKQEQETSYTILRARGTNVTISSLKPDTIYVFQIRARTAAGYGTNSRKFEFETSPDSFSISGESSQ

dog EphA2 (Dog) = experiment: FP direct binding, selectivity
rat EphB1 = molecular target: T5, rat EphB1 (Rat, UniProt P09759 18-540); experiment: FP direct binding, selectivity
T5 construct: extracellular domain; also called EphB1 (Ecto), Rat
T5 sequence (looked up): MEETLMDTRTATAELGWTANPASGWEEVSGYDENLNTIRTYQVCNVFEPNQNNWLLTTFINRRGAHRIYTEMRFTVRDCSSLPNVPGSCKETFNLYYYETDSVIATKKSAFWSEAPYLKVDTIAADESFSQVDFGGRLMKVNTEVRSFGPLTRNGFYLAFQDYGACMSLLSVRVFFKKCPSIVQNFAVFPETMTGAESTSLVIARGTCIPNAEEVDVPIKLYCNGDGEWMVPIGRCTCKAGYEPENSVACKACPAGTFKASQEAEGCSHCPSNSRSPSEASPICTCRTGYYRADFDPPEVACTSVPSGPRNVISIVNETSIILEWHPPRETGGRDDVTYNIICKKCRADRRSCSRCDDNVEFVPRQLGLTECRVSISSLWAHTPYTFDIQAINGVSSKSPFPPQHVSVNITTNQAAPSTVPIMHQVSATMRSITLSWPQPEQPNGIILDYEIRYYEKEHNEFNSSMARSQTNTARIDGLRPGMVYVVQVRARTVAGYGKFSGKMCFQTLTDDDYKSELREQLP
Method: as §2

Human EphA1 = molecular target: T6, Human EphA1 (Human, UniProt P21709 26-547); experiment: FP direct binding, selectivity
T6 construct: extracellular domain; also called EphA1 (Ecto), Human
T6 sequence (looked up): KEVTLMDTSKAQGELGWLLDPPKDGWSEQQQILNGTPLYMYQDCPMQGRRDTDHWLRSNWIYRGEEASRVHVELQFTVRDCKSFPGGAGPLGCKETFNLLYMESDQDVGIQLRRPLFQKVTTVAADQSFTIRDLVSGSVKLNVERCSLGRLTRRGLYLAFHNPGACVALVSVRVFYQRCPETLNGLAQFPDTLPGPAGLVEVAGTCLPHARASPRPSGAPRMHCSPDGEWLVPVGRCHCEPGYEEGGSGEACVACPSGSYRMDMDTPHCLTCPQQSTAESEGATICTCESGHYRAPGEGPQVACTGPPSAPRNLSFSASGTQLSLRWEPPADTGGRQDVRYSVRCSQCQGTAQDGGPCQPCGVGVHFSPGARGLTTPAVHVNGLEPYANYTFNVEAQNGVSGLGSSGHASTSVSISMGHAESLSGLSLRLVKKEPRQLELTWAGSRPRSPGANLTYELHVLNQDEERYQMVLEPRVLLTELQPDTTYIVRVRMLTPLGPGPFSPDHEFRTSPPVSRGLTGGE
Method: as §2

Binder: ACRNIPTMCPFGPVWCA (linker 2-9-16 via TBMB) [Compound 32]
Ki (Human EphA2 (Ecto) [1]): 83.4 nM

Binder: {AlexaFluor488-βAla}-[Sar][Sar][Sar][Sar][Sar][Sar][Sar][Sar][Sar][Sar]ACPWGPFWCPVNRPGC (linker 12-19-26 via TBMB, bicyclic peptide, fluorescent) [Compound 68]
Kd (dog EphA2): 31.9 nM
Kd (rat EphA2): 15.9 nM

Binder: ACPWGPAWCPVHGKTCA (linker 2-9-16 via TBMB) [Compound 41]
Ki (Human EphA2 (Ecto) [1]): 263 nM

Binder: Ac-[Sar][Sar]A[dD][Gly(cPent)]VTCPWGPFWCPVNRPGC (linker 8-15-22 via TBMB) [Compound 163]
Ki (Mouse EphA2 (Ecto) [6]): 1.74 nM
Ki (Human EphA2 (Ecto) [7]): 1.33 nM

Binder: {AF488-βAla}-[Sar][Sar][Sar][Sar][Sar][Sar][Sar][Sar][Sar][Sar]H[dD]VPCP[1Nal]G[Aib]F[1Nal]CP[Tle]NR[Aib]GC (linker 15-22-29 via TBMB) [Compound 144]
Kd (Mouse EphA2 (Ecto) [8]): 2.56 nM
Kd (Human EphA2 (Ecto) [9]): 1.04 nM
Kd [10]: 166 nM
Kd (dog EphA2 (Dog)): 4.39 nM
Kd (mouse EphA2): 2.56 nM
Kd (rat EphA2): 1.25 nM
Kd (rat EphB1): 1440 nM
Kd (Human EphA1): 1710 nM

Binder: ACVPQGIWCALQFEPCA (linker 2-9-16 via TBMB) [Compound 63]
Ki (Human EphA2 (Ecto) [2]): 92.2 nM
Ki (Human EphA2 (Ecto) [1]): 144 nM
Ki (Human EphA2 (Ecto) [3]): 82.5 nM

Results, then the binder that gave them:

Ki (Human EphA2 (Ecto) [2]): 99.2 nM
Ki (Human EphA2 (Ecto) [3]): 117 nM
Binder: ACPWGPAWCPVNRPGCAGAAA (linker 2-9-16 via TBMB) [Compound 45]

Ki (Human EphA2): > 1000 nM
B1: BDC-5 (peptide)
peptide: {DM1-disulphide linker of formula (B)-βAla}-[Sar][Sar][Sar][Sar][Sar][Sar][Sar][Sar][Sar][Sar]ACPWAPFWCAVNRPGC
modifications: linker 12-19-26 via TBMB; reading uncertain
notes: DM1 conjugate; also called Bicyclic Peptide Drug Conjugate BDC-5; Compound 303, Formula (B)

Kd (dog EphA2): 2.17 nM
Kd (mouse EphA2): 0.8 nM
Kd (rat EphA2): 0.36 nM
Binder: {AF488-βAla}-[Sar][Sar][Sar][Sar][Sar][Sar][Sar][Sar][Sar][Sar]H[dD]VPCPWGPFWCPVNRPGCA (linker 15-22-29 via TBMB, bicyclic peptide, fluorescent)

Kd (Mouse EphA2 (Ecto) [4]): 0.8 nM
Kd (Human EphA2 (Ecto) [5]): 0.31 nM
Binder: {AF488-βAla}-[Sar][Sar][Sar][Sar][Sar][Sar][Sar][Sar][Sar][Sar]H[dD]VPCPWGPFWCPVNRPGCA (linker 15-22-29 via TBMB)
